Experimental findings from publication PMC4907695 are described below.

In experiment [1] the target is SecA^A795C-FL (SecA with a fluorescein label at position 795 on the tip of the two-helix finger) (E. coli) (UniProt P10408). The experiment in a line: other fluorescence titration; as a1 (10 nM SecA*, TSG buffer, 0.02% DDM, 2 mM MgCl2, 1 mM AMPPNP) with SecYLGEG pre-incubated with 100 mM DTT.
The target is the same in experiment [2]. The experiment in a line: other fluorescence titration; 10 nM SecA* fixed, SecYEG varied; quenching of the fluorescein on SecA*; TSG buffer (20 mM Tris pH 7.5, 130 mM NaCl, 10% glycerol) with 0.02% DDM, 2 mM MgCl2, 1 mM AMPPNP; no DTT; fitted to a tight binding equation.

As for “SecYLGEG pre-incubated with 100 mM DTT (disulphide between S87C and F286C of SecY reduced) (from UniProt P0AGA2 1-443; P0AG96 1-127; P0AG99 1-110) (complex)”, the Kd in experiment [1] is 19 nM.

“SecYLGEG, oxidised (SecYEG with the lateral gate closed by a disulphide bond between S87C and F286C of SecY) (from UniProt P0AGA2 1-443; P0AG96 1-127; P0AG99 1-110) (complex)”: the Kd in experiment [2] was 41 nM.

The Kd is the equilibrium constant for the complex coming apart.
